This note sets out measurements from US9695426B2, “Biofuel production by recombinant microorganisms” (The Regents of the University of California, priority 2007, dated 2017).

Numbering of substitutions follows the chain as printed. Numbers in names are those of the source.

The subject of data set [1] is wild-type E. coli strain (JCL16). Briefly: isobutanol tolerance of E. coli. An excerpt: Non-native hosts such as E. coli lack tolerance to high alcohols. Isobutanol is as toxic as 1-butanol to microorganisms, and the native 1-butanol producers can tolerate 1-butanol concentration up to about 2%. To show the potential for improving tolerance, in vitro evolution by the sequential transfer of cultures was used to enrich for strains with mutations which increase isobutanol tolerance. […] Other strategies such as gTME can be used for further improvement of tolerance.

The subject of data set [2] is JCL260. Type of data set: cell-based, E. coli. As to conditions: for 3-methyl-1-butanol final titer / isobutanol accumulation: ilvE+ tyrB+ background. As for the experimental part:
Final production experiments were conducted as previously described, except that 20 mL modified M9 media containing 5 g/L of glucose was used in a 250 mL screw cap flask.
Metabolite Detections. The produced alcohol compounds were quantified by a gas chromatograph (GC) equipped with flame ionization detector. The system consisted of model 5890A GC (Hewlett-Packard, Avondale, Pa.) and a model 7673A automatic injector, sampler and controller (Hewlett-Packard). Supernatant of culture broth ([…]) was injected in split injection mode (1:15 split ratio) using methanol as the internal standard.
The separation of alcohol compounds was carried out by A DB-WAX capillary column (30 m, 0.32 mm-i.d., 0.50 μm-film thickness) purchased from Agilent Technologies (Santa. Clara, Calif.). GC oven temperature was initially held at 40° C. for 5 min and raised with a gradient of 15° C./min until 120° C. It was then raised with a gradient 50° C./min until 230° C. and held for 4 min. Helium was used as the carrier gas with 9.3 psi inlet pressure. The injector and detector were maintained at 225° C. 0.5 ul supernatant of culture broth was injected in split injection mode with a 1:15 split ratio. Methanol was used as the internal standard.

The subject of data set [3] is JCL260. Nature of the data set: α-keto acid production with IPMS variants. The class given is cell-based, E. coli. The method, then: All α-keto acid experiments were done under oxygen ‘rich’ conditions unless otherwise noted. For oxygen rich experiments, 10 mL cultures in 250 mL baffled shake flasks were inoculated 1% from 3 mL overnight cultures in LB. For oxygen poor experiments, 10 mL cultures were inoculated in 125 mL screw caps as previously described. All cultures were grown at 37° C. for 4 hours and induced with 1 mM IPTG and harvested after 18 hrs of growth at 30° C.
For other secreted metabolites, filtered supernatant was applied (20 ul) to an Agilent 1100 HPLC equipped with an auto-sampler (Agilent Technologies) and a BioRad (Biorad Laboratories, Hercules, Calif.) Aminex HPX87 column (5 mM H2SO4, 0.6 ml/min, column temperature at 65° C.). Glucose was detected with a refractive index detector, while organic acids were detected using a photodiode array detector at 210 nm. Concentrations were determined by extrapolation from standard curves.
In order to investigate this hypothesis, the production of the α-keto acid precursors, the substrates for kivd, to isobutanol and 3-methyl-1-butanol were examined. […] In hopes of increasing the KIC pool, the expression level of leuA was increased by changing the RBS from its native sequence to a more consensus sequence.
Isopropylmalate synthase (IPMS) catalyzes the condensation of KIV with acetyl-CoA. […] To relieve the feedback inhibition of the leuA gene product, two strategies were employed. A feedback insensitive mutant of IPMS (IPMS (G462D)) was employed. Second, the final step in the L-leucine synthesis pathway was inactivated by deleting ilvE (branched-chain amino acid transferase) and tyrB (tyrosine aminotransferase), two isozymes responsible for converting α-ketoisocaproate into L-leucine.

Data set [4] relates to KS145. Briefly: 1-Propanol and 1-butanol production with the selected CimA mutants (citramalate pathway). The conditions noted are these: ΔilvI ΔilvB strain with pSA63 and pSA55, after 64 hr. The class given is cell-based, E. coli.
The test system of data set [5] is KS145. The description is as above. Type of data set: cell-based, E. coli. As to conditions: 30° C. for 40 h. As for the experimental part: Medium and cultivation for 1-propanol and 1-butanol production. M9 medium containing 36 g/L glucose, 5 g/L yeast extract, 100 μg/ml ampicillin, 30 μg/ml kanamycin and 1000th dilution of Trace Metal Mix A5 (2.86 g H3BO3, 1.81 g MnCl2.4H2O, 0.222 g ZnSO4.7H2O, 0.39 g Na2MoO4.2H2O, 0.079 g CuSO4.5H2O, 49.4 mg Co(NO3)2.6H2O per liter water) was used for cell growth. Preculture in test tubes containing 3 ml of medium was performed at 37° C. overnight on a rotary shaker (250 rpm). Overnight culture was diluted 1:100 into 20 ml of fresh medium in a 250 ml screw cap conical flask. Cells were grown at 37° C. for 3 hr, followed by adding 0.1 mM IPTG. Cultivation was performed at 30° C. on a rotary shaker (250 rpm). Gas chromatography-flame ionization detector and high-performance liquid chromatography analyses were performed.
The citramalate pathway was then used to enhance the production of 1-propanol and 1-butanol (FIG. 13). An E. coli strain (KS145) auxotrophic for L-isoleucine, leucine, and valine (ΔilvI and ΔilvB). was transformed with pSA63 (or other plasmids containing variants of cimA) and pSA55 (PLlacO1::kivd-ADH2). The deletions of ilvI and ilvB (FIG. 13) were introduced for two reasons. First, the deletions eliminated the native substrate, 2-ketoisovalerate, for the leuABCD pathway, thus reducing the competitive substrate inhibition. Second, these deletions eliminated the production of 2-keto-3-methyl-valerate and 2-keto-4-methyl-pentanoate, which are competing substrates for Kivd. The strain expressing the wild-type cimA gene (KS145/pSA63/pSA55) produced 302 mg/liter 1-propanol and 18 mg/liter 1-butanol after 40 h (FIG. 60). KS145 with pSA55 only, where Kivd utilizes endogenous 2-keto acids, produced 40 mg/liter 1-propanol and 10 mg/liter 1-butanol under the same condition. KS145 without pSA55 and pSA63 produced neither 1-propanol nor 1-butanol (FIG. 60). Note that the yeast extract was added to the medium to boost the cell density.
1-Propanol and 1-butanol production was tested with the selected CimA variants in KS145 by replacing pSA63 with corresponding plasmids (Table 19) containing various cimA mutants. […] The production of 1-propanol and 1-butanol from the strain with CimA2 increased 3.9- and 4.3-fold, respectively, compared to the strain with the wild-type CimA.

The mark [6] stands for this setting: KS145 with pSA55 and pSA63 (cimA-leuABCD) or its variations.
Where [7] appears, read: KS145 with pSA55 and pSA63 variations.

Regarding `CC(C)CO` [isobutanol], the “isobutanol concentration that inhibited the strain” value in data set [1] was 1.5%. Besides, in data set [1] (mutants after 5 rounds of culture transfers with increasing isobutanol concentrations), the “isobutanol concentration in the presence of which mutants grow” value is reported as 2%.

B1: IPMS (G462D): feedback insensitive mutant of isopropylmalate synthase (leuA gene product) (protein, UniProt P09151 2-523, looked up, variant G462D)
2-isopropylmalate synthase: SQQVIIFDTTLRDGEQALQASLSVKEKLQIALALERMGVDVMEVGFPVSSPGDFESVQTIARQVKNSRVCALARCVEKDIDVAAESLKVAEAFRIHTFIATSPMHIATKLRSTLDEVIERAIYMVKRARNYTDDVEFSCEDAGRTPIADLARVVEAAINAGATTINIPDTVGYTMPFEFAGIISGLYERVPNIDKAIISVHTHDDLGLAVGNSLAAVHAGARQVEGAMNGIGERAGNCSLEEVIMAIKVRKDILNVHTAINHQEIWRTSQLVSQICNMPIPANKAIVGSGAFAHSSGIHQDGVLKNRENYEIMTPESIGLNQIQLNLTSRSGRAAVKHRMDEMGYKESEYNLDNLYDAFLKLADKKGQVFDYDLEALAFIGKQQEEPEHFRLDYFSVQSGSNDIATAAVKLACGEEVKAEAANGNGPVDAVYQAINRITEYNVELVKYSLTAKGHGKDALDQVDIVANYNGRRFHGVGLATDIVESSAKAMVHVLNNIWRAAEVEKELQRKAQHNENNKETV
In the data set on JCL260 [2], B1 returned a 3-methyl-1-butanol final titer of 459 mg/L and an isobutanol accumulation of 15 mg/L. This molecule also gave a KIC final concentration in the data set on JCL260 [3] of 1.61 g/L. Also, the KIV accumulation in the data set on JCL260 [3] (JCL260 background, ilvE+ tyrB+) is recorded as 0.17 g/L. Besides, in the data set with JCL260 [3] (ΔilvE background), the KIC production is reported as 2.31 g/L. In the data set on JCL260 [3] (ΔilvE ΔtyrB background), the KIC production is recorded as 1.95 g/L.

B2: WT IPMS: wild-type isopropylmalate synthase, the E. coli leuA gene product (protein, UniProt P09151 2-523, looked up)
2-isopropylmalate synthase: B1 2-isopropylmalate synthase with D461G
Turning to B2, in the data set with JCL260 [2], the 3-methyl-1-butanol final titer came out at 308 mg/L and the isobutanol accumulation is recorded as 169 mg/L. Besides, in the data set with JCL260 [2] (ΔilvE ΔtyrB strain), the 3-methyl-1-butanol final concentration is 553 mg/L and the isobutanol worked out at 42 mg/L. Also, in the data set with JCL260 [3] (ΔilvE background), the KIC production stood at 0.53 g/L and the KIV final concentration stood at 0.40 g/L. Also, in the data set on JCL260 [3] (ΔilvE ΔtyrB background), the KIC production stood at 1.23 g/L and the KIV final concentration came out at 0.37 g/L.

B3: WT: wild-type citramalate synthase CimA from M. jannaschii (SEQ ID NO:89) (protein, listed as Methanocaldococcus jannaschii)
chain: MMVRIFDTTLRDGEQTPGVSLTPNDKLEIAKKLDELGVDVIEAGSAITSKGEREGIKLITKEGLNAEICSFVRALPVDIDAALECDVDSVHLVVPTSPIHMKYKLRKTEDEVLETALKAVEYAKEHGLIVELSAEDATRSDVNFLIKLFNEGEKVGADRVCVCDTVGVLTPQKSQELFKKITENVNLPVSVHCHNDFGMATANTCSAVLGGAVQCHVTVNGIGERAGNASLEEVVAALKILYGYDTKIKMEKLYEVSRIVSRLMKLPVPPNKAIVGDNAFAHEAGIHVDGLIKNTETYEPIKPEMVGNRRRIILGKHSGRKALKYKLDLMGINVSDEQLNKIYERVKEFGDLGKYISDADLLAIVREVTGKLVEEKIKLDELTVVSGNKITPIASVKLHYKGEDITLIETAYGVGPVDAAINAVRKAISGVADIKLVEYRVEAIGGGTDALIEVVVKLRKGTEIVEVRKSDADIIRASVDAVMEGINMLLN
Take B3: in the data set on KS145 [4], the 1-butanol produced result is given as “about 21 mg/L” and the 1-propanol produced entry is recorded as “about 350 mg/L”. Further, in the data set with KS145 [5] (setting [6]), the “Production of 1-Butanol” value amounted to 18 mg/L and the “Production of 1-Propanol” value came to 302 mg/L. Besides, in the data set on KS145 [5] (setting [7]), the “1-Butanol change (fold) relative to the strain containing wild-type CimA” value was found to be 1 fold and the “1-Propanol change (fold) relative to the strain containing wild-type CimA” value is reported as 1 fold.
